Test results: US20220363732A1 (MAX DELBR CK CENTRUM F R MOLEKULARE MEDIZIN IN DER …, published 2022)

T1: CD5 peptide on HLA-A*02:01 (human)
T1 peptide: SICEGTVEV

T2: CD5 peptide on HLA-A*02:01 (human)
T2 peptide: YLKDGWHMV


Assays:
[1] = target: T1, CD5 peptide on HLA-A*02:01; experiment: killing
[2] = target: CD5 51-59 epitope (…, SEQ ID NO: 1) in complex with HLA-A2 (human); experiment: cell-based or functional assay
[3] = target: T2, CD5 peptide on HLA-A*02:01; experiment: killing

Kd value from peptide titration on peptide loaded T2 cells: fold increase for RNAi-CD5 TCR T cells from HLA-A2+ donors against TCR-transduced T cells from an HLA-A2- donor [2] [fold]	Binder	binding result [3]	also measured
–	T-7378 (TCR, V domains shown) Valpha: AQTVTQSQPEMSVQEAETVTLSCTYDTSESDYYLFWYKQPPSRQMILVIRQEAYKQQNATENRFSVNFQKAAKSFSLKISDSQLGDAAMYFCAYRGTSGTYKYIFGTGTMLKVLA Vbeta: DTEVTQTPKHLVMGMTNKKSLKCEQHMGHRAMYWYKQKAKKPPELMFVYSYEKLSINESVPSRFSPECPNSSLLNLHLHALQPEDSALYLCASSRGLAGPYEQYFGPGTRLTVT	–	binding result [1]: recognises
2.24	T-20109 TCR (TCR, V domains shown) V domain 1: AQKITQTQPGMFVQEKEAVTLDCTYDTSDPSYGLFWYKQPSSGEMIFLIYQGSYDQQNATEGRYSLNFQKARKSANLVISASQLGDSAMYFCAMREEYSGAGSYQLTFGKGTKLSVIP V domain 2: EPEVTQTPSHQVTQMGQEVILRCVPISNHLYFYWYRQILGQKVEFLVSFYNNEISEKSEIFDDQFSVERPDGSNFTLKIRSTKLEDSAMYFCASSQGPYNEQFFGPGTRLTVLE	–	–
–	T-20332 (TCR, V domains shown) Valpha: AQKITQTQPGMFVQEKEAVTLDCTYDTSDPSYGLFWYKQPSSGEMIFLIYQGSYDQQNATEGRYSLNFQKARKSANLVISASQLGDSAMYFCAMREEYSGAGSYQLTFGKGTKLSVIP Vbeta: EPEVTQTPSHQVTQMGQEVILRCVPISNHLYFYWYRQILGQKVEFLVSFYNNEISEKSEIFDDQFSVERPDGSNFTLKIRSTKLEDSAMYFCASSRGPYNEQFFGPGTRLTVL	recognises	–
–	T-20109 (TCR, V domains shown) Valpha: AQKITQTQPGMFVQEKEAVTLDCTYDTSDPSYGLFWYKQPSSGEMIFLIYQGSYDQQNATEGRYSLNFQKARKSANLVISASQLGDSAMYFCAMREEYSGAGSYQLTFGKGTKLSVIP Vbeta: EPEVTQTPSHQVTQMGQEVILRCVPISNHLYFYWYRQILGQKVEFLVSFYNNEISEKSEIFDDQFSVERPDGSNFTLKIRSTKLEDSAMYFCASSQGPYNEQFFGPGTRLTVL	recognises	–
1.48	T-20332 TCR (TCR, V domains shown) V domain 1: AQKITQTQPGMFVQEKEAVTLDCTYDTSDPSYGLFWYKQPSSGEMIFLIYQGSYDQQNATEGRYSLNFQKARKSANLVISASQLGDSAMYFCAMREEYSGAGSYQLTFGKGTKLSVIP V domain 2: EPEVTQTPSHQVTQMGQEVILRCVPISNHLYFYWYRQILGQKVEFLVSFYNNEISEKSEIFDDQFSVERPDGSNFTLKIRSTKLEDSAMYFCASSRGPYNEQFFGPGTRLTVLE	–	–
